Measurements as given in patent US20120213801.

Legend:
[1] = system: T1, Flag-tagged Twist-1 WT from starved HEK293 cells (not phosphorylated)
T1 sequence: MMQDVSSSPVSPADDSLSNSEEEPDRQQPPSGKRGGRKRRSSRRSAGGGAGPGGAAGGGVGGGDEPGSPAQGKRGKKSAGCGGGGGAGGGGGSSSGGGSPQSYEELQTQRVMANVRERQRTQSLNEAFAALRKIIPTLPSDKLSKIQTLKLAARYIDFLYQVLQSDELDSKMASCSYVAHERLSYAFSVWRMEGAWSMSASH

[2] = biological target: T2, GST-Twist-1 (full-length, substrate of the in vitro kinase assay)
T2 chain: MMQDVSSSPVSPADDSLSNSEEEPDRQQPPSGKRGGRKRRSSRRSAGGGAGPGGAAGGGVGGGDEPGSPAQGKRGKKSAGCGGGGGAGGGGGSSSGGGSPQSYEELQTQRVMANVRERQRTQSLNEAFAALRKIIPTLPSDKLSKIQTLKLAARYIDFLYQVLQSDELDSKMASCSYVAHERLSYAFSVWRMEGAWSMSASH

RERQRAQSLNEA-T121A = biological target: T3, RERQRAQSLNEA-T121A
T3 chain: RERQRAQSLNEA

RERQRTQALNEA-S123A = biological target: T4, RERQRTQALNEA-S123A
T4 chain: RERQRTQALNEA

RERQRTQSLNEA-T121/5123 = biological target: T5, RERQRTQSLNEA-T121/5123
T5 chain: RERQRTQSLNEA

RKRRSARRSAGG-S42A = biological target: T6, RKRRSARRSAGG-S42A
T6 chain: RKRRSARRSAGG

RKRRSSRRAAGG-S45A = biological target: T7, RKRRSSRRAAGG-S45A
T7 chain: RKRRSSRRAAGG

RKRRSSRRSAGG-S42/S45 = biological target: T8, RKRRSSRRSAGG-S42/S45
T8 chain: RKRRSSRRSAGG

endogenous PKB kinase of HEK293 cells
Twist-1 S42 phosphorylation after serum stimulation (Western blot; shRNA against PKB) [1]: Twist-1 S42 phosphorylation was not induced after serum stimulation of cells with a low PKB content

B1: activated recombinant PKBβ (protein)
chain: KVTMNDFDYLKLLGKGTFGKVILVREKATGRYYAMKILRKEVIIAKDEVAHTVTESRVLQNTRHPFLTALKYAFQTHDRLCFVMEYANGGELFFHLSRERVFTEERARFYGAEIVSALEYLHSRDVVYRDIKLENLMLDKDGHIKITDFGLCKEGISDGATMKTFCGTPEYLAPEVLEDNDYGRAVDWWGLGVVMYEMMCGRLPFYNQDHERLFELILMEEIRFPRTLSPEAKSLLAGLLKKDPKQRLGGGPSDAKEVMEHRFFLSINWQDVVQKKLLPPFKPQVTSEVDTRYFDDEFTAQSITITPPDRYDSLGLLELDQRTHFPQFSYSASIRE
in vitro kinase assays followed by mass spectrometry (MS) analysis [2]: confirmed that PKB phosphorylates Twist-1 in vitro on two residues S42 and S123 | phosphorylation of synthetic peptide (in vitro kinase assay, 32P-ATP, scintillation counting); no such loss, by implication (RERQRAQSLNEA-T121A): Only substitution of serine to alanine at positions 42 and 123 resulted in almost complete loss of phosphorylation of the corresponding peptide by PKB | phosphorylation of synthetic peptide (in vitro kinase assay, 32P-ATP, scintillation counting); almost complete loss (RERQRTQALNEA-S123A): Only substitution of serine to alanine at positions 42 and 123 resulted in almost complete loss of phosphorylation of the corresponding peptide by PKB | phosphorylation of synthetic peptide (in vitro kinase assay, 32P-ATP, scintillation counting); parent peptide, phosphorylated by implication (RERQRTQSLNEA-T121/5123): Only substitution of serine to alanine at positions 42 and 123 resulted in almost complete loss of phosphorylation of the corresponding peptide by PKB | phosphorylation of synthetic peptide (in vitro kinase assay, 32P-ATP, scintillation counting); almost complete loss (RKRRSARRSAGG-S42A): Only substitution of serine to alanine at positions 42 and 123 resulted in almost complete loss of phosphorylation of the corresponding peptide by PKB | phosphorylation of synthetic peptide (in vitro kinase assay, 32P-ATP, scintillation counting); no such loss, by implication (RKRRSSRRAAGG-S45A): Only substitution of serine to alanine at positions 42 and 123 resulted in almost complete loss of phosphorylation of the corresponding peptide by PKB | phosphorylation of synthetic peptide (in vitro kinase assay, 32P-ATP, scintillation counting); parent peptide, phosphorylated by implication (RKRRSSRRSAGG-S42/S45): Only substitution of serine to alanine at positions 42 and 123 resulted in almost complete loss of phosphorylation of the corresponding peptide by PKB
